PMC8211817

Substrate: N[C@@H](CC(=O)O)C(=O)O
Experiment: purified protein
Details: 300 mM Na+ outside, pH 7, 10 mM potassium phosphate, valinomycin, 300 mM KCl in lumen, mixed membrane orientation, no sybody, labelled compound

B1: GltTk (Thermococcus kodakarensis KOD1) (protein)
chain: MGKSLLRRYLDYPVLWKILWGLVLGAVFGLIAGHFGYAGAVKTYIKPFGDLFVRLLKMLVMPIVLASLVVGAASISPARLGRVGVKIVVYYLATSAMAVFFGLIVGRLFNVGANVNLGSGTGKAIEAQPPSLVQTLLNIVPTNPFASLAKGEVLPVIFFAIILGIAITYLMNRNEERVRKSAETLLRVFDGLAEAMYLIVGGVMQYAPIGVFALIAYVMAEQGVRVVGPLAKVVGAVYTGLFLQIVITYFILLKVFGIDPIKFIRKAKDAMITAFVTRSSSGTLPVTMRVAEEEMGVDKGIFSFTLPLGATINMDGTALYQGVTVLFVANAIGHPLTLGQQLVVVLTAVLASIGTAGVPGAGAIMLAMVLQSVGLDLTPGSPVALAYAMILGIDAILDMGRTMVNVTGDLAGTVIVAKTEKELDESKWIS
  Km: 0.70 ± 0.22 µM
  kcat: 0.895 s⁻¹
